The text below walks through data of US20150139990A1 (DAINIPPON SUMITOMO PHARMA, published 2015).

Numbering of substitutions follows the chain as printed. Numbers in names are those of the source.

Assay [1] has as its target T1, human CD81 on CD81-expressing cells (Jurkat E6.1, human PBMC, Ramos) (human, UniProt P60033 1-236).
T1 sequence: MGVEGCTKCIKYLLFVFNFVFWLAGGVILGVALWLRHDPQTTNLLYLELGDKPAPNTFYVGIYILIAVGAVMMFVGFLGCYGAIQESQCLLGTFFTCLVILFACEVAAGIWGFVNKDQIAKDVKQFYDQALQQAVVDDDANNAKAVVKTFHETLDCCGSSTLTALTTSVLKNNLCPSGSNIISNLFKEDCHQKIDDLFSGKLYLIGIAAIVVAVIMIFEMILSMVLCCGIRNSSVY
In words: cell-based or functional assay.

For the next assay, the target named is T2, human CD81 mutant H151R (human, UniProt P60033 1-236, limits assumed).
T2 construct: as m30; also called H151B; not shown: C-terminal V5 and 6xHis tags
T2 sequence: T1 sequence with H151R
Description: ELISA. (In general: In an ELISA, binding on a coated surface is turned into a signal by an enzyme label.)

A further assay has as its target T3, human CD81 mutant V135L (human, UniProt P60033 1-236, limits assumed).
T3 construct: as m30; not shown: C-terminal V5 and 6xHis tags
T3 sequence: T1 sequence with V135L
Description: ELISA.

For another assay, the target named is T4, human CD81 mutant S168T (human, UniProt P60033 1-236, limits assumed).
T4 construct: as m30; not shown: C-terminal V5 and 6xHis tags
T4 sequence: T1 sequence with S168T
In words: ELISA.

The target in the next assay is T5, human CD81 mutant G158A (human, UniProt P60033 1-236, limits assumed).
T5 construct: as m30; not shown: C-terminal V5 and 6xHis tags
T5 sequence: T1 sequence with G158A
In words: ELISA.

The target of the next assay is T6, human CD81 mutant D137E (human, UniProt P60033 1-236, limits assumed).
T6 construct: as m30; not shown: C-terminal V5 and 6xHis tags
T6 sequence: T1 sequence with D137E
Description: ELISA.

The next assay addresses T7, human CD81 mutant H151A (human, UniProt P60033 1-236, limits assumed).
T7 construct: as m30; not shown: C-terminal V5 and 6xHis tags
T7 sequence: T1 sequence with H151A
Description: ELISA.

The next assay concerns the target T8, human CD81 mutant L170A (human, UniProt P60033 1-236, limits assumed).
T8 construct: as m30; not shown: C-terminal V5 and 6xHis tags
T8 sequence: T1 sequence with L170A
Description: ELISA.

B1: 002-A07 S115A (antibody, human IgG4 S228P, lambda, V domains shown)
VH: EVQLLESGGGLVQPGGSLRLSCAASGFTFSSNYMSWVRQAPGKGLEWVSYISSSSTYTDYADSVKGRFTISRDNSKNTLYLQMNSLRAEDTAVYYCARYSYGRDNFDYWGQGTLVTVSS
VL: QSVLTQPPSASGTPGQRVTISCTGSTSNIGAGYDTHWYQQLPGTAPKLLIYGNSNRPSGVPDRFSGSKSGTSASLAISGLRSEDEADYYCQSYDTNLAVWVFGGGTKLTVLG
notes: IgG4 S228P; glycosylation site mutant of 002-A07 VL
For B1, the “Jurkat chemotaxis (% of control IgG4) at 0.001 µg/mL” value in assay [1] was found to be 82%. For the same molecule, the “Jurkat chemotaxis (% of control IgG4) at 0.01 µg/mL” value in assay [1] turned out to be 78%. In addition, the “Jurkat chemotaxis (% of control IgG4) at 0.1 µg/mL” value in assay [1] amounted to 32%. The “Jurkat chemotaxis (% of control IgG4) at 1 µg/mL” value in assay [1] was -4%. In addition, the “Jurkat chemotaxis (% of control IgG4) at 10 µg/mL” value in assay [1] is -9%. In addition, the relative binding affinity with human CD81 mutant H151R, in the assay with human CD81 mutant V135L, with human CD81 mutant S168T, with human CD81 mutant G158A, with human CD81 mutant D137E and with human CD81 mutant H151A was less than 20% throughout. In addition, the relative binding affinity with human CD81 mutant L170A is less than 20%.
